According to patent US20190209659, “STABLE LIQUID FIBRINOGEN” (LABORATOIRE FRANCAIS DU FRACTIONNEMENT ET DES …, published 2019):
Positions count from the first letter of the chain named.

B1: SEQ ID NO 80 variant (deletion 1/2) (ssDNA)
DNA: GTCAATGCCAGGTCTCGGACCTGGAATCCGCCACCCGCATTAGAACCAGGGTTGAC
B2: SEQ ID NO 82 variant (ssDNA)
DNA: GTCAATGCCAGTCGCTGGAATCCGCCACCCGCATTAGAACCAGGGTTGAC
B3: SEQ ID NO 60 aptamer (ssDNA)
DNA: GGGTCAATGCCAGGTCTCTGCGTACTTATCTCGATGTGGTTGGTAGGGATAGGTGTATATCGGCTCGCAAGCAGTC
modifications: 5' biotin-triethylene glycol
B4: SEQ ID NO 65 aptamer (ssDNA)
DNA: GGGTCAATGCCAGGTCTCGAGCCGGTGTTGTGTTATGTTGGTAGGGAAGGTGTATAATATCGGCTCGCAAGCAGTC
modifications: 5' biotin-triethylene glycol
B5: SEQ ID NO 67 (A5-2.9 base sequence) (ssDNA)
DNA: CGCGTGTGGTTGGTAGGGCTAGGTGTATACGCAT
modifications: 5' biotin-triethylene glycol (SPR); 5' amino-C6 spacer and 3' inverted dT (affinity support)
B6: SEQ ID NO 89 variant (ssDNA)
DNA: GTCAATGCCAGGTCTCGGACCTGGAATCCGCCACCCGCATTAGAACCAGGGTTGA
B7: SEQ ID NO 90 variant (ssDNA)
DNA: GTCAATGCCAGGTCTCGGACCTGGAATCCGCCACCCGCATAGAACCAGGGTTGAC
B8: SEQ ID NO 92 variant (ssDNA)
DNA: B7 DNA with A39T
B9: SEQ ID NO 81 variant (ssDNA)
DNA: GTCAATGCCAGGTCTCCCTGGAATCCGCCACCCGCATTAGAACCAGGGTTGAC
B10: SEQ ID NO 85 variant (ssDNA)
DNA: B9 DNA with T15G, C16A
B11: SEQ ID NO 91 variant (ssDNA)
DNA: B9 DNA with G12T, T13C, C14G, T15G, C16A
B12: SEQ ID NO 1 aptamer (ssDNA)
DNA: GGGTCAATGCCAGGTCTCGGACCTGGAATCCGCCACCCGCATTAGAACCAGGGTTGACATCGGCTCGCAAGCAGTC
modifications: 5' biotin-triethylene glycol
B13: SEQ ID NO 58 aptamer (ssDNA)
DNA: GGGTCAATGCCAGGTCTCAACTTTCGCGTGTGGTTGGTAGGGCTAGGTGTATACGCATATCGGCTCGCAAGCAGTC
modifications: 5' biotin-triethylene glycol
B14: SEQ ID NO 83 variant (ssDNA)
DNA: GTCAATGCCAGGTCTCCTGGAATCCGCCACCCGCATTAGAACCAGGGTTGAC
B15: SEQ ID NO 86 variant (ssDNA)
DNA: B14 DNA with T15G
B16: SEQ ID NO 93 variant (ssDNA)
DNA: B14 DNA with G12C, T13G, C14G, T15A
B17: SEQ ID NO 84 variant (ssDNA)
DNA: B14 DNA with T15A
B18: SEQ ID NO 87 variant (ssDNA)
DNA: GTCAATGCCAGGTCTCACCTGGAATCCGCCACCCGCATTAGAACCAGGGTTGAC
B19: SEQ ID NO 88 variant (ssDNA)
DNA: B18 DNA with T15G, C16G
B20: SEQ ID NO 66 (A5-1.9 base sequence) (ssDNA)
DNA: GGGTCAATGCCAGGTCTCGGACCTGGAATCCGCCACCCGCATTAGAACCAGGGTTGAC
modifications: 5' biotin-triethylene glycol (SPR); 5' amino-C6 spacer and 3' inverted dT (affinity support)

Assays:
[1] = target: T1, fibrinogen (plasma) (Homo sapiens, UniProt P02671-2;P02675;P02679-2 P02671-2:20-644,P02675:31-491,P02679-2:27-437); test: competition; 2 uM variant with 0.4 uM fibrinogen over immobilised SEQ 66 (SPR); among highest affinity; details: tags: human plasma purified, 95% or 99.9% purity; semi-purified and plasma used in chromatography; chain copies: 2
T1 sequence (P02671 other isoform, or with tags, fused parts or gaps, chain 1 of 3): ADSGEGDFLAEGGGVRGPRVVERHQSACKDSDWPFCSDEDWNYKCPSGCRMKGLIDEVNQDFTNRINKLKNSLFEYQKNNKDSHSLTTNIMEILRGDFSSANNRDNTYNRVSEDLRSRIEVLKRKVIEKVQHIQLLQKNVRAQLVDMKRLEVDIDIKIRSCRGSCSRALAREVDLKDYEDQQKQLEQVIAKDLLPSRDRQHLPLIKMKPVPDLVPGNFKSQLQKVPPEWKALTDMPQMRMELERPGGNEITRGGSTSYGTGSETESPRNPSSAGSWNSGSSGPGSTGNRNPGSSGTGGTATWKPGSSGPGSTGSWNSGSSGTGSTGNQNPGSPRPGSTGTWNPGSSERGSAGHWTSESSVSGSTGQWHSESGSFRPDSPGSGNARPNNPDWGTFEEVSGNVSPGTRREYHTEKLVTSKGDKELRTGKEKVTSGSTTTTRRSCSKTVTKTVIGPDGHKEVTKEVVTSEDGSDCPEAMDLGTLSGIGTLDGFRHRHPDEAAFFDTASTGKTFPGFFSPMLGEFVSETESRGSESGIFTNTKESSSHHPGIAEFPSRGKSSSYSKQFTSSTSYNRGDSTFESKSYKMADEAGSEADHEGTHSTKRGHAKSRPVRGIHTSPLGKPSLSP
T1 sequence (P02675 31-491, chain 2 of 3): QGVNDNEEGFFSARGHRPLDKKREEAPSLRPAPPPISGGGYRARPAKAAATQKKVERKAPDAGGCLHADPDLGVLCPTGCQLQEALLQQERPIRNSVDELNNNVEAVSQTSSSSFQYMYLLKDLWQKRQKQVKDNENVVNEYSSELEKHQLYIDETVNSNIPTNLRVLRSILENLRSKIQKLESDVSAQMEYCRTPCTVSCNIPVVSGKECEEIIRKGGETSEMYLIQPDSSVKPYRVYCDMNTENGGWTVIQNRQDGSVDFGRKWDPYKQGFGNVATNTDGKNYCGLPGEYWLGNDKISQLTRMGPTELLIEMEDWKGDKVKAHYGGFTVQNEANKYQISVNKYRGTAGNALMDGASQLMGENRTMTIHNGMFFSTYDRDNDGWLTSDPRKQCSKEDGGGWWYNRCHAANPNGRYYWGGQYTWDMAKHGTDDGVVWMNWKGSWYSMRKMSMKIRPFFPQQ
T1 sequence (P02679 other isoform, or with tags, fused parts or gaps, chain 3 of 3): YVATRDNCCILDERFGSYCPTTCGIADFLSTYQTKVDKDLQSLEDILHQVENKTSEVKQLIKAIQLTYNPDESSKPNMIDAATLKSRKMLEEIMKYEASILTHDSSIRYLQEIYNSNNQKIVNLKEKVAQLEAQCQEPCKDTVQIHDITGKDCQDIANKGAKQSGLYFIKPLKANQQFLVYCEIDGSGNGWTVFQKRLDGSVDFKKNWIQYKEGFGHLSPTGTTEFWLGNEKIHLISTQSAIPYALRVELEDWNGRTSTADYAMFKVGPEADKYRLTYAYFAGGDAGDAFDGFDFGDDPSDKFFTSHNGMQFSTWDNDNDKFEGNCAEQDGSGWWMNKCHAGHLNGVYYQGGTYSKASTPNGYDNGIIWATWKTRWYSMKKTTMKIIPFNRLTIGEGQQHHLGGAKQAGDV
Description: (§1) In order to compare the affinity of the designed variants with that of the parental aptamer, a concurrent test was conducted. Firstly, a 1 μM solution of the aptamer of SEQ ID NO 66 was prepared using binding buffer. The aptamer solution was heated to 90° C. for 5 min, incubated in ice for 5 min and balanced at the ambient temperature for 10 min. The preparation was injected into a sensor chip coated with streptavidin SA from Biacore T200 instrument (GE Healthcare) at a rate of 10 μl/min for 7 min. Then, mixtures containing a variant (2 μM) and the human plasma fibrinogen (0.4 μM) were injected on the aptamer immobility at a rate of 30 μl/min for 1 minute. The response obtained for the various fragment/fibrinogen mixtures was compared.

[2] = target: T1, fibrinogen (plasma); test: SPR; 250 nM fibrinogen, pH 6.3; resists 0.5 M NaCl; details: tags: human plasma purified, 95% or 99.9% purity; semi-purified and plasma used in chromatography; chain copies: 2
[3] = target: T2, fibrinogen (transgenic, human) (Homo sapiens, UniProt P02671-2;P02675;P02679-2 P02671-2:20-644,P02675:31-491,P02679-2:27-437); test: SPR; stated strong affinity for plasma and transgenic fibrinogen, pH 6.3; details: tags: purified from transgenic cow milk, 97% purity; chain copies: 2
T2 sequence (P02671 other isoform, or with tags, fused parts or gaps, chain 1 of 3): as the sequence (P02671 other isoform, or with tags, fused parts or gaps, chain 1 of 3) above
T2 sequence (P02675 31-491, chain 2 of 3): as the sequence (P02675 31-491, chain 2 of 3) above
T2 sequence (P02679 other isoform, or with tags, fused parts or gaps, chain 3 of 3): as the sequence (P02679 other isoform, or with tags, fused parts or gaps, chain 3 of 3) above

[4] = target: T2, fibrinogen (transgenic, human); test: SPR; dose-dependent 125-1000 nM, pH 6.3; resists 1 M NaCl, eluted at pH 7.4 with 2 M MgCl2; details: tags: purified from transgenic cow milk, 97% purity; chain copies: 2
Description: (§2) Each solution of transgenic fibrinogen was injected at pH 6.3 in such a way that a complex was formed in a dose-dependent manner as shown by the increase in the signals depending on the concentration of fibrinogen. […] The fibrinogen was then released from the complex by an elution buffer at pH 7.40 and containing MgCl₂ 2 M. The solid support was then regenerated by injection of a solution of NaOH 50 mM. X-axis: time in s. Y-axis: SPR response in arbitrary unit.
(§3) The chosen aptamer was synthesised with biotin and a spacer of triethylene glycol at the end 5′ of the oligonucleotide. A solution 1 μM of the aptamer was prepared using the SELEX selection buffer. The aptamer solution was heated to 90° C. for 5 min, incubated in ice for 5 min and balanced at the ambient temperature for 10 min. The preparation was injected into a sensor chip coated with streptavidin SA from Biocore T200 instrument (GE Healthcare) at a debit of […] for 7 min. Then, various concentrations of the target were injected onto the immobilised aptamer at a rate of 30 μl/min for 1 minute. After a dissociation for 1-2 min, a step of washing was carried out via injection of a suitable wash buffer at a rate of 30 μl/min for 1 min. For the elution, a suitable elution buffer was injected at a rate of 30 μl/min for 1-2 min. […] During the experiment, the response signal was recorded in a sensorgram.

[5] = target: T1, fibrinogen (plasma); test: as above; details: tags: human plasma purified, 95% or 99.9% purity; semi-purified and plasma used in chromatography; chain copies: 2
Description: as §2, with “human plasma” for “transgenic”
as §3

[6] = target: T1, fibrinogen (plasma); test: competition; significant inhibition of fibrinogen binding to immobilised SEQ 66 (SPR); details: tags: human plasma purified, 95% or 99.9% purity; semi-purified and plasma used in chromatography; chain copies: 2
Description: as §1

[7] = target: T2, fibrinogen (transgenic, human); test: SPR; stated strong affinity, pH-dependent; details: tags: purified from transgenic cow milk, 97% purity; chain copies: 2
[8] = target: T1, fibrinogen (plasma); test: SPR; stated strong affinity, pH-dependent; details: tags: human plasma purified, 95% or 99.9% purity; semi-purified and plasma used in chromatography; chain copies: 2
[9] = target: T1, fibrinogen (plasma); test: SPR; dose-dependent 125-1000 nM, pH 6.3, MOPS, NaCl 150 mM, MgCl2 5 mM; resists 0.5 M NaCl, eluted at pH 7.4; details: tags: human plasma purified, 95% or 99.9% purity; semi-purified and plasma used in chromatography; chain copies: 2
Description: as §2, with “human plasma” for “transgenic”, “7.40.” for “7.40 and containing MgCl₂ 2 M.”
as §3

[10] = target: T2, fibrinogen (transgenic, human); test: SPR; dose-dependent 125-1000 nM, pH 6.3; resists 0.5 M NaCl, eluted at pH 7.4; details: tags: purified from transgenic cow milk, 97% purity; chain copies: 2
Description: as §2, with “7.40.” for “7.40 and containing MgCl₂ 2 M.”
as §3

Row | Binder | binding result [1] | binding result [6] | also measured
1 | B1 | binds | – | –
2 | B2 | binds | – | –
3 | B3 | – | – | binding result [2]: binds; binding result [3]: binds
4 | B4 | – | – | binding result [2]: binds; binding result [3]: binds
5 | B5 | – | – | binding result [4]: binds; binding result [5]: binds
6 | B6 | – | binds | –
7 | B7 | – | binds | –
8 | B8 | – | binds | –
9 | B9 | binds | – | –
10 | B10 | binds | – | –
11 | B11 | – | binds | –
12 | B12 | – | – | binding result [7]: binds; binding result [8]: binds
13 | B13 | – | – | binding result [7]: binds; binding result [8]: binds
14 | B14 | binds | – | –
15 | B15 | binds | – | –
16 | B16 | – | binds | –
17 | B17 | binds | – | –
18 | B18 | binds | – | –
19 | B19 | – | binds | –
20 | B20 | – | – | binding result [9]: binds; binding result [10]: binds
